Measurements: PMC10953011, “Oxygen‐insensitive nitroreductase E. coli NfsA, but not NfsB, is inhibited by fumarate” (Proteins, 2022)

Legend:
[1] = substrate: NC(=O)C1=CN([C@@H]2O[C@H](COP(=O)(O)OP(=O)(O)OC[C@H]3O[C@@H](n4cnc5c(N)ncnc54)[C@H](OP(=O)(O)O)[C@@H]3O)[C@@H](O)[C@H]2O)C=CC1; test: purified protein; assay type: biochemical, Escherichia coli; details: FMN; pH 7.0; 25.0 °C
[2] = substrate: NC(=O)N/N=C/c1ccc([N+](=O)[O-])o1; test: purified protein; assay type: biochemical, Escherichia coli; details: FMN; pH 7.0; 25.0 °C

B1: NfsA (Escherichia coli K-12) (protein)
chain: MTPTIELICGHRSIRHFTDEPISEAQREAIINSARATSSSSFLQCSSIIRITDKALREELVTLTGGQKHVAQAAEFWVFCADFNRHLQICPDAQLGLAEQLLLGVVDTAMMAQNALIAAESLGLGGVYIGGLRNNIEAVTKLLKLPQHVLPLFGLCLGWPADNPDLKPRLPASILVHENSYQPLDKGALAQYDEQLAEYYLTRGSNNRRDTWSDHIRRTIIKESRPFILDYLHKQGWATR
notes: untagged full-length
- Km [1]: 29 ± 6 µM
- kcat [1]: 25 ± 2 s⁻¹
- kcat/Km [1]: 860000 ± 100000 M⁻¹ s⁻¹
- Km [2]: 27 ± 6 µM
- kcat [2]: 25 ± 2 s⁻¹
- kcat/Km [2]: 930000 ± 100000 M⁻¹ s⁻¹
